In publication PMC6555819, “Comprehensive study of nuclear receptor DNA binding provides a revised framework for understanding receptor specificity”:
Numbering of substitutions follows the chain as printed.

B1: NRC3_wobSeed87_DR3_T15C_o1 (dsDNA)
DNA 1: GCCGAACTAGGTCACCCAGGACAGTGAATACATTGAGCGATTGACAGCGTAGAATGAAGG
DNA 2: CCTTCATTCTACGCTGTCAATCGCTCAATGTATTCACTGTCCTGGGTGACCTAGTTCGGC
B2: NRC3_wobSeed76_DR3_T5A_o1 (dsDNA)
DNA 1: GCCCAACTGGGCCAAAAAGGTCATTGATGCCGATAAGCGATTGACAGCGTAGAATGAAGG
DNA 2: CCTTCATTCTACGCTGTCAATCGCTTATCGGCATCAATGACCTTTTTGGCCCAGTTGGGC
B3: NRC3_wobSeed76_DR3_G20T_o1 (dsDNA)
DNA 1: B2 DNA 1 with A5T, G20T
DNA 2: B2 DNA 2 with C41A, T56A
B4: NRC3_wobSeed76_DR3_A17G_o1 (dsDNA)
DNA 1: B2 DNA 1 with A5T, A17G
DNA 2: B2 DNA 2 with T44C, T56A
B5: NRC3_wobSeed44_DR1_G17T_o1 (dsDNA)
DNA 1: GCTGAATGAGGTTAAATATCAGGGAACGTGGCGTCGGCGATTGACAGCGTAGAATGAAGG
DNA 2: CCTTCATTCTACGCTGTCAATCGCCGACGCCACGTTCCCTGATATTTAACCTCATTCAGC
B6: NRC3_random_hg19_149_o1 (dsDNA)
DNA 1: GCATGAAACCATGCTCGAGTGTGTGTGTGTGTGTATGCGATTGACAGCGTAGAATGAAGG
DNA 2: CCTTCATTCTACGCTGTCAATCGCATACACACACACACACACTCGAGCATGGTTTCATGC
B7: NRC3_wobSeed136_DR5_G11T_o1 (dsDNA)
DNA 1: GCTAGCCTAGTTCATTCAGGGGCCAGTATAGAAAGCGCGATTGACAGCGTAGAATGAAGG
DNA 2: CCTTCATTCTACGCTGTCAATCGCGCTTTCTATACTGGCCCCTGAATGAACTAGGCTAGC
B8: NRC3_wobSeed136_DR5_T8G_o1 (dsDNA)
DNA 1: B7 DNA 1 with T8G, T11G
DNA 2: B7 DNA 2 with A50C, A53C
B9: NRC3_random_hg19_374_o1 (dsDNA)
DNA 1: GCTAGACTGGCGACTGCTTGATTCATGGCTGAGTCTGCGATTGACAGCGTAGAATGAAGG
DNA 2: CCTTCATTCTACGCTGTCAATCGCAGACTCAGCCATGAATCAAGCAGTCGCCAGTCTAGC
B10: NRC3_wobSeed1_DR0_A20T_o1 (dsDNA)
DNA 1: GCCAAACTAGGTCAAGGTCTAAGTCGGTTTGTGCCAGCGATTGACAGCGTAGAATGAAGG
DNA 2: CCTTCATTCTACGCTGTCAATCGCTGGCACAAACCGACTTAGACCTTGACCTAGTTTGGC
B11: NRC3_random_hg19_315_o1 (dsDNA)
DNA 1: GCAGTCACACCTAACTGCAGGGAAGTCTATGAAATGGCGATTGACAGCGTAGAATGAAGG
DNA 2: CCTTCATTCTACGCTGTCAATCGCCATTTCATAGACTTCCCTGCAGTTAGGTGTGACTGC
B12: NRC3_wobSeed27_DR1_A9T_o1 (dsDNA)
DNA 1: GCACTCGGTGGACAAAGGTCAGAGCTACGCCAGTGAGCGATTGACAGCGTAGAATGAAGG
DNA 2: CCTTCATTCTACGCTGTCAATCGCTCACTGGCGTAGCTCTGACCTTTGTCCACCGAGTGC
B13: NRC3_wobSeed110_DR4_A15T_o1 (dsDNA)
DNA 1: GCTCTGCTAGGTCATCGATGGTCAGCTAATCTGCTAGCGATTGACAGCGTAGAATGAAGG
DNA 2: CCTTCATTCTACGCTGTCAATCGCTAGCAGATTAGCTGACCATCGATGACCTAGCAGAGC
B14: NRC3_wobSeed110_DR4_C26T_o1 (dsDNA)
DNA 1: B13 DNA 1 with T15A, C26T
DNA 2: B13 DNA 2 with G35A, A46T
B15: NRC3_wobSeed46_DR1_A5G_o1 (dsDNA)
DNA 1: GCTTGCCAAGGTGAAAGGTCGTTGATGCACGCCTTGGCGATTGACAGCGTAGAATGAAGG
DNA 2: CCTTCATTCTACGCTGTCAATCGCCAAGGCGTGCATCAACGACCTTTCACCTTGGCAAGC
B16: NRC3_random_hg19_241_o1 (dsDNA)
DNA 1: GCTGTAACGTGGGCTTCACTGTCGGGTCCAGCCCACGCGATTGACAGCGTAGAATGAAGG
DNA 2: CCTTCATTCTACGCTGTCAATCGCGTGGGCTGGACCCGACAGTGAAGCCCACGTTACAGC
B17: NRC3_wobSeed4_DR0_C7G_o1 (dsDNA)
DNA 1: GCCCTAGTGGGCCAAGGTCATTGATCAGTCAAAGCAGCGATTGACAGCGTAGAATGAAGG
DNA 2: CCTTCATTCTACGCTGTCAATCGCTGCTTTGACTGATCAATGACCTTGGCCCACTAGGGC
B18: NRC3_wobSeed17_DR0_T21G_o1 (dsDNA)
DNA 1: GCATATGTAGGTTAGGGTCAGTCAGAAAGTAGGGAAGCGATTGACAGCGTAGAATGAAGG
DNA 2: CCTTCATTCTACGCTGTCAATCGCTTCCCTACTTTCTGACTGACCCTAACCTACATATGC
B19: NRC3_wobSeed15_DR0_A18C_o1 (dsDNA)
DNA 1: GCCGAACTAGGTCAAGGCCAGTGAATCTCCGCACGCGCGATTGACAGCGTAGAATGAAGG
DNA 2: CCTTCATTCTACGCTGTCAATCGCGCGTGCGGAGATTCACTGGCCTTGACCTAGTTCGGC
B20: NRC3_wobSeed71_DR2_G12T_o1 (dsDNA)
DNA 1: GCCGAACGAGGTCATGAGTTGATAGCAAATGCCGATGCGATTGACAGCGTAGAATGAAGG
DNA 2: CCTTCATTCTACGCTGTCAATCGCATCGGCATTTGCTATCAACTCATGACCTCGTTCGGC
B21: NRC3_wobSeed137_DR5_A5T_o1 (dsDNA)
DNA 1: GCATTTGTAGGTTACATCCGGGTCATTCAGGCTATGGCGATTGACAGCGTAGAATGAAGG
DNA 2: CCTTCATTCTACGCTGTCAATCGCCATAGCCTGAATGACCCGGATGTAACCTACAAATGC
B22: NRC3_wobSeed14_DR0_T23G_o1 (dsDNA)
DNA 1: GCCCTGCTAGGTCATGGTCAGCGAATCTACAGTATGGCGATTGACAGCGTAGAATGAAGG
DNA 2: CCTTCATTCTACGCTGTCAATCGCCATACTGTAGATTCGCTGACCATGACCTAGCAGGGC
B23: NRC3_wobSeed99_DR4_G16C_o1 (dsDNA)
DNA 1: GCTCTCGGAGGACACCAAAGGTCAGAGCTCGACATCGCGATTGACAGCGTAGAATGAAGG
DNA 2: CCTTCATTCTACGCTGTCAATCGCGATGTCGAGCTCTGACCTTTGGTGTCCTCCGAGAGC
B24: NRC3_wobSeed99_DR4_G16T_o1 (dsDNA)
DNA 1: B23 DNA 1 with C16T
DNA 2: B23 DNA 2 with G45A
B25: NRC3_wobSeed66_DR2_T16G_o1 (dsDNA)
DNA 1: GCAATACAGGGTCACGAGGCCAGAGTAGGTACGAATGCGATTGACAGCGTAGAATGAAGG
DNA 2: CCTTCATTCTACGCTGTCAATCGCATTCGTACCTACTCTGGCCTCGTGACCCTGTATTGC
B26: NRC3_wobSeed12_DR0_T19C_o1 (dsDNA)
DNA 1: GCCCGACTGGGGCAAGGTCACCATAACGCACAGCCAGCGATTGACAGCGTAGAATGAAGG
DNA 2: CCTTCATTCTACGCTGTCAATCGCTGGCTGTGCGTTATGGTGACCTTGCCCCAGTCGGGC
B27: NRC3_wobSeed39_DR1_G4C_o1 (dsDNA)
DNA 1: GCCCAACTAGGTCAAAGGACAGTGAAAGGCGACGTAGCGATTGACAGCGTAGAATGAAGG
DNA 2: CCTTCATTCTACGCTGTCAATCGCTACGTCGCCTTTCACTGTCCTTTGACCTAGTTGGGC
B28: NRC3_wobSeed39_DR1_A16G_o1 (dsDNA)
DNA 1: B27 DNA 1 with C4G, A16G
DNA 2: B27 DNA 2 with T45C, G57C
B29: NRC3_wobSeed28_DR1_A14T_o1 (dsDNA)
DNA 1: GCCCTACTGGGCCTAAGGTCATTGATTCCAATGCTCGCGATTGACAGCGTAGAATGAAGG
DNA 2: CCTTCATTCTACGCTGTCAATCGCGAGCATTGGAATCAATGACCTTAGGCCCAGTAGGGC
B30: NRC3_wobSeed16_DR0_C7A_o1 (dsDNA)
DNA 1: GCCAGCATAGGTCAGGGCCAGTATAGGAGGAACGTTGCGATTGACAGCGTAGAATGAAGG
DNA 2: CCTTCATTCTACGCTGTCAATCGCAACGTTCCTCCTATACTGGCCCTGACCTATGCTGGC

What was measured:
Assay in all cases: no ligand; PBM; 270 nM : 90 nM RXRa; PBS pH 7.4, 2% milk, 0.02% Triton X-100, 1 mM DTT, BSA, 0.4 mg/ml salmon testes DNA
FXR:RXRa = FXR:RXRa (Homo sapiens, UniProt Q96RI1;P19793 full;full); conditions: tags: His kept;His cleaved; copies: 1;1; label: surface-attached array probe
Procedure, shortened: (§1)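 Random background probes are the reference for binding z-scores. These scores derive from regression-normalized fluorescence on custom Agilent 4×180K protein-binding microarrays incubated 1 h with ligand-free nuclear receptor dimers. Binding was detected with antibodies against each partner (one per run).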

RARg:RXRa = RARg:RXRa (Homo sapiens, UniProt P13631;P19793 full;full); conditions: tags: His kept;His cleaved; copies: 1;1; label: surface-attached array probe
Procedure, shortened: as §1

PPARa:RXRa = PPARa:RXRa (Homo sapiens, UniProt Q07869;P19793 full;full); conditions: tags: GST kept;His cleaved; copies: 1;1; label: surface-attached array probe
Procedure, shortened: as §1

RARg:RXRa, sequence (P13631 whole entry, chain 1 of 2): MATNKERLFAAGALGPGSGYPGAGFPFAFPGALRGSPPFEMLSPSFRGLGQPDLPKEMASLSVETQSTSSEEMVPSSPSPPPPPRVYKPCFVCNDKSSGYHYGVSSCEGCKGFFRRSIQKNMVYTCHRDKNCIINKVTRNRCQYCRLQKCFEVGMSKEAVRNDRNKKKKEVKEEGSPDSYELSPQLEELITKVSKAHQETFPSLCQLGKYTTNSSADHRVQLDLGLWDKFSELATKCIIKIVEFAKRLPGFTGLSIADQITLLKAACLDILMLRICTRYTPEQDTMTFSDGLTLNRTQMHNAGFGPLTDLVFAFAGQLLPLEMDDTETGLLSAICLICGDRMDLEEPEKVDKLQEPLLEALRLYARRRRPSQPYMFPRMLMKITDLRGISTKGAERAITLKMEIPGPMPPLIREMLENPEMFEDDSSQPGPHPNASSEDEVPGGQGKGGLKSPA
RARg:RXRa, sequence (P19793 whole entry, chain 2 of 2): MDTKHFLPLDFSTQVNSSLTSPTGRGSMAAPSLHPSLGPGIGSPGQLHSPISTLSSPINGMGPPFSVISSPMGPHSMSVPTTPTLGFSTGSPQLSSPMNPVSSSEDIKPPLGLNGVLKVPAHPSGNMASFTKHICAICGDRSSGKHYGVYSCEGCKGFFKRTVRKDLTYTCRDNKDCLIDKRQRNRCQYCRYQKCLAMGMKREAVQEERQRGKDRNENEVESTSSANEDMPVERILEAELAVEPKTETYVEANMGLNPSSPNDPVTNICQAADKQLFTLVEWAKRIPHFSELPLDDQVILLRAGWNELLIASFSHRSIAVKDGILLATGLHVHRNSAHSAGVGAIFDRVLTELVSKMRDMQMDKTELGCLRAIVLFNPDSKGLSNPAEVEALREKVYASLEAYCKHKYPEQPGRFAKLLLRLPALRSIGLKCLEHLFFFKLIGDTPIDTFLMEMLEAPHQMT
FXR:RXRa, sequence (Q96RI1 whole entry, chain 1 of 2): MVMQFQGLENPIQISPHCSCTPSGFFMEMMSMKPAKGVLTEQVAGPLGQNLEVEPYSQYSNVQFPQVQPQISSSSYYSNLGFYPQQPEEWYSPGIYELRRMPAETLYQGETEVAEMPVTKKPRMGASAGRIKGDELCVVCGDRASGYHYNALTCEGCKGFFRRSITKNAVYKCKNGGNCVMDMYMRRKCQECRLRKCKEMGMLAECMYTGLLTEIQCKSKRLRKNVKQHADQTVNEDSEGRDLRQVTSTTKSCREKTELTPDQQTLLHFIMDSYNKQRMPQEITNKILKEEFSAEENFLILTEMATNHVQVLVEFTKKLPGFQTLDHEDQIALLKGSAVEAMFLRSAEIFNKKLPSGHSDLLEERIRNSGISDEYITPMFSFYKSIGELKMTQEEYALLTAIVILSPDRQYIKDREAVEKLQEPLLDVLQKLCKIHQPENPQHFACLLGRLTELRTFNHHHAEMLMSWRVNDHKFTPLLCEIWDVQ
FXR:RXRa, sequence (P19793 whole entry, chain 2 of 2): as the sequence (P19793 whole entry, chain 2 of 2) above
PPARa:RXRa, sequence (Q07869 whole entry, chain 1 of 2): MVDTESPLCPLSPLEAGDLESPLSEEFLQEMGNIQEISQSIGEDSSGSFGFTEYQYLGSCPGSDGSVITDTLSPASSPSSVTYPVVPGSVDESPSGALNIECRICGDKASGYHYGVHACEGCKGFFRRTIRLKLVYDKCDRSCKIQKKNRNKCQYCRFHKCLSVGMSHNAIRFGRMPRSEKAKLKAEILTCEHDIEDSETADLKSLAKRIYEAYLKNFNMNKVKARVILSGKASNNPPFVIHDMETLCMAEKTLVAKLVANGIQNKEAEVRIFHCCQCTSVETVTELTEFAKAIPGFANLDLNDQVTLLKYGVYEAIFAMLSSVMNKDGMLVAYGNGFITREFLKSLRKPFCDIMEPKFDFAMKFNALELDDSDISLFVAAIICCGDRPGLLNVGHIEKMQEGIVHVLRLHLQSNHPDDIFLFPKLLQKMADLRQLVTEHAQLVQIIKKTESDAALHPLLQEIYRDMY
PPARa:RXRa, sequence (P19793 whole entry, chain 2 of 2): as the sequence (P19793 whole entry, chain 2 of 2) above

Binder	binding signal (FXR:RXRa)	binding signal (RARg:RXRa)	binding signal (PPARa:RXRa)
B1	3.58 PBM z-score against 500 random probes		
B2	3.39 PBM z-score against 500 random probes		
B3	0.49 PBM z-score against 500 random probes		
B4	3.31 PBM z-score against 500 random probes		
B5	3.09 PBM z-score against 500 random probes		
B6	-0.44 PBM z-score against 500 random probes	-0.37 PBM z-score against 500 random probes	
B7	0.31 PBM z-score against 500 random probes		0.45 PBM z-score against 500 random probes
B8	7.79 PBM z-score against 500 random probes	7.94 PBM z-score against 500 random probes	
B9	-0.55 PBM z-score against 500 random probes	-0.21 PBM z-score against 500 random probes	
B10	3.61 PBM z-score against 500 random probes		
B11	-0.43 PBM z-score against 500 random probes	-0.2 PBM z-score against 500 random probes	
B12	3.23 PBM z-score against 500 random probes		
B13	3.45 PBM z-score against 500 random probes		
B14	3.07 PBM z-score against 500 random probes		
B15	3.55 PBM z-score against 500 random probes		
B16	-0.46 PBM z-score against 500 random probes		-0.77 PBM z-score against 500 random probes
B17	3.34 PBM z-score against 500 random probes		
B18	3 PBM z-score against 500 random probes		
B19	3.52 PBM z-score against 500 random probes		
B20	7.78 PBM z-score against 500 random probes		6.51 PBM z-score against 500 random probes
B21	3.26 PBM z-score against 500 random probes		
B22	4.17 PBM z-score against 500 random probes		3.44 PBM z-score against 500 random probes
B23	3.18 PBM z-score against 500 random probes		
B24	3.03 PBM z-score against 500 random probes		
B25	7.9 PBM z-score against 500 random probes		6.53 PBM z-score against 500 random probes
B26	3.29 PBM z-score against 500 random probes		
B27	3.67 PBM z-score against 500 random probes	3.99 PBM z-score against 500 random probes	
B28	3.42 PBM z-score against 500 random probes		
B29	3.15 PBM z-score against 500 random probes		
B30	3.48 PBM z-score against 500 random probes		
